Measured values reported in patent US20150376271 (published 2015).
Changes are numbered by the printed parent chain. “And” between values parts separate entries of the source, which are not always exact repeats. Identical values can stand only once. Like-named read-outs stand apart in the source and are kept apart here.

B1: OG1321 (antibody)
chain 1: LVVTPPGPELVLNVSSTFVLTCSGSAPVVWERMSQEPPQEMAKAQDGTFSSVLTLTNLTGLDTGEYFCTHNDSRGLETDERKRLYIFVPDPTVGFLPNDAEELFIFLTEITEITIPCRVTDPQLVVTLHEKKGDVALPVPYDHQRGFSGIFEDRSYICKTTIGDREVDSDAYYVYRLQVSSINVSVNAVQTVVRQGENITLMCIVIGNEVVNFEWTYPRKESGRLVEPVTDFLLDMPYHIRSILHIPSAELEDSGTYTCNVTESVNDHQDEKAINITVVESGGGGGSGGGGSEVQLVESGGGLVQPGGSLRLSCAASGYDFTHYGMNWVRQAPGKGLEWVGWINTYTGEPTYAADFKRRFTFSLDTSKSTAYLQMNSLRAEDTAVYYCAKYPYYYGTSHWYFDVWGQGTLVTVSSASTKGPSVFPLAPSSKSTSGGTAALGCLVKDYFPEPVTVSWNSGALTSGVHTFPAVLQSSGLYSLSSVVTVPSSSLGTQTYICNVNHKPSNTKVDKKVEPKSCDKTHTCPPCPAPEAAGAPSVFLFPPKPKDTLMISRTPEVTCVVVDVSHEDPEVKFNWYVDGVEVHNAKTKPREEQYNSTYRVVSVLTVLHQDWLNGKEYKCKVSNKALPAPIEKTISKAKGQPREPQVYTLPPSREEMTKNQVSLTCLVKGFYPSDIAVEWESNGQPENNYKTTPPVLDSDGSFFLYSKLTVDKSRWQQGNVFSCSVMHEALHNHYTQKSLSCSPGK
chain 2: not shown
modifications: TAF443 protein, unconjugated
B2: TAF443 (antibody)
chain 1: B1 chain 1
chain 2: not shown
B3: TAF347 (antibody)
chain 1: B1 chain 1 with Q645C, C741L
chain 2: not shown
B4: OG1448 (antibody)
chain 1: B1 chain 1
chain 2: not shown
B5: OG1321 (antibody)
chain 1: B1 chain 1
chain 2: not shown

Assays:
[1] = molecular target: T1, PDGF-BB (human, UniProt P01127); experiment: SPR, 25C
T1 chain: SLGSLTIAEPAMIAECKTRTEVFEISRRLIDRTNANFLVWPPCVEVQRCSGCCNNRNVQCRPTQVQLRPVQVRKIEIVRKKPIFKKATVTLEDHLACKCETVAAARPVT

[2] = molecular target: T2, VEGF121 (human, UniProt P15692); experiment: SPR
T2 chain: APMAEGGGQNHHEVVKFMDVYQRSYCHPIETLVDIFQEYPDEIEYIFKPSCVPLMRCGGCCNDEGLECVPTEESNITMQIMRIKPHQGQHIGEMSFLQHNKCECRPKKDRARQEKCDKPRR

[3] = molecular target: T2, VEGF121; experiment: SPR
[4] = molecular target: T3, VEGFA-165 (human, UniProt P15692); experiment: competition
T3 chain: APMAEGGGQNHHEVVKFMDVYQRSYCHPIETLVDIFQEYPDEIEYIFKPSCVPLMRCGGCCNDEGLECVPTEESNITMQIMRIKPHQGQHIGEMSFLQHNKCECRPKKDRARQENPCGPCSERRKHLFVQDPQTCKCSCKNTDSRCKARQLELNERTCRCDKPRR

[5] = molecular target: T3, VEGFA-165; experiment: SPR
[6] = molecular target: T3, VEGFA-165; experiment: competition

Binder	Kd [2] [nM]	Kd [3]	Kd [5] [nM]	IC50 [6] [nM]	other results
B1	–	–	–	–	Kd [1]: 0.014 nM
B2	0.225	0.23 nM and 0.219 nM	–	–	–
B3	0.231	0.28 nM and 0.182 nM	–	–	–
B4	–	–	0.0051	8.5	IC50 [4]: 10.1 nM
B5	–	–	0.0098	12.5	–
